Reference: ChEMBL document CHEMBL2074526, “ATP-dependent transport of amphiphilic cations across the hepatocyte canalicular membrane mediated by mdr1 P-glycoprotein” (FEBS Lett, 1994)

Experiments:
Type in all cases: functional, cell membranes
[1] = tested on: C=C[C@H]1CN2CC[C@H]1C[C@@H]2[C@@H](O)c1ccnc2ccc(OC)cc12; assay: (§1) TP_TRANSPORTER: uptake in rat canalicular membrane vesicle
[2] = tested on: C=CC1C[N+]2(CCCCC)CCC1CC2C(O)c1ccnc2ccc(OC)cc12; assay: TP_TRANSPORTER: uptake in rat canalicular plasma membrane vesicles; conditions: Canalicular plasma membrane vesicle
[3] = target: Multidrug resistance protein 1a (Rattus norvegicus) (UniProt Q6PSM0); assay: as §1

Molecule | Km [1] | Km [2] | Activity [3]
Multidrug resistance protein 1a (Rattus norvegicus), Q6PSM0 | 5 µM | 0.4 µM | –
CCC1C[N+]2(CCCC3(C)N=N3)C3CC45c6ccccc6N(C)C4C2CC1C3C5O (stereo not drawn) | – | – | substrate [+]
